The source of these data is article PMC11470957, “Principles of paralog-specific targeted protein degradation engaging the C-degron E3 KLHDC2” (Nature Communications, 2024).

To fix the notation:
B1: BRD3^BD2 (second bromodomain of BRD3, residues 306-416) [not stated] / KLHDC2 substrate binding domain (KLHDC2^SBD, 15-361) [not stated] (parent)
chain 1: GPAFESYESMELACPAERSGHVAVSDGRHMFVWGGYKSNQVRGLYDFYLPREELWIYNMETGRWKKINTEGDVPPSMSGSCAVCVDRVLYLFGGHHSRGNTNKFYMLDSRSTDRVLQWERIDCQGIPPSSKDKLGVWVYKNKLIFFGGYGYLPEDKVLGTFEFDETSFWNSSHPRGWNDHVHILDTETFTWSQPITTGKAPSPRAAHACATVGNRGFVFGGRYRDARMNDLHYLNLDTWEWNELIPQGICPVGRSWHSLTPVSSDHLFLFGGFTTDKQPLSDAWTYCISKNEWIQFNHPYTEKPRLWHTACASDEGEVIVFGGCANNLLVHHRAAHSNEILIFSVQP
chain 2: GKLSEHLRYCDSILREMLSKKHAAYAWPFYKPVDAEALELHDYHDIIKHPMDLSTVKRKMDGREYPDAQGFAADVRLMFSNCYKYNPPDHEVVAMARKLQDVFEMRFAKMP

The variants in one assay derive from B1. The experiment in a line: ITC. Conditions: with KLHDC2 substrate binding domain (KLHDC2^SBD, 15-361); syringe: KLHDC2SBD; cell: E344G BRD3BD2-SJ46421 (ternary complex via PROTAC SJ46421); n = 2.
The Kd is the free concentration of one partner at which half of the binding sites on the other are occupied at equilibrium, for simple one-to-one binding. For the variant chain 2 E39G, the Kd came out at 0.181 µM.

Still in this assay, the particulars now being: with BRD3^BD2 (second bromodomain of BRD3, residues 306-416); syringe: R56A KLHDC2SBD; cell: BRD3BD2-SJ46421 (ternary complex via PROTAC SJ46421); n = 2.
As for chain 1 GPAFESYESMELACPAERSGHVAVSDGRHMFVWGGYKSNQVAGLYDFYLPREELWIYNMETGRWKKINTEGDVPPSMSGSCAVCVDRVLYLFGGHHSRGNTNKFYMLDSRSTDRVLQWERIDCQGIPPSSKDKLGVWVYKNKLIFFGGYGYLPEDKVLGTFEFDETSFWNSSHPRGWNDHVHILDTETFTWSQPITTGKAPSPRAAHACATVGNRGFVFGGRYRDARMNDLHYLNLDTWEWNELIPQGICPVGRSWHSLTPVSSDHLFLFGGFTTDKQPLSDAWTYCISKNEWIQFNHPYTEKPRLWHTACASDEGEVIVFGGCANNLLVHHRAAHSNEILIFSVQP [chain 1 R42A], the Kd is 0.273 µM.
